Test results published in IntAct's records for PubMed 20133701.

Molecular target: T1, rara_human RARA (UniProt P10276)
T1 sequence: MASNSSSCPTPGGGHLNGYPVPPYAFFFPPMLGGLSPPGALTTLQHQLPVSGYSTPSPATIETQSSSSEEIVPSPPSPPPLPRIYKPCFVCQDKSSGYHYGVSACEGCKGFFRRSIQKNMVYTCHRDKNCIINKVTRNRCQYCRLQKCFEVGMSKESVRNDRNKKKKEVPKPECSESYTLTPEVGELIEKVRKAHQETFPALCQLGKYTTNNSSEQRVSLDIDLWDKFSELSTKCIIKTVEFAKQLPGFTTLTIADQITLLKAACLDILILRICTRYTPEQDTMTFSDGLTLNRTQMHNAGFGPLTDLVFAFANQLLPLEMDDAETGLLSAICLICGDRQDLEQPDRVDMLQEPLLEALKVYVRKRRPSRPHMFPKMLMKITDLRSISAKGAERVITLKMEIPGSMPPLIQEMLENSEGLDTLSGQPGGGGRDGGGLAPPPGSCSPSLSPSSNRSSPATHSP

effect of a mutation on the interaction: disrupting interaction strength
Substance: LIM domain-containing protein ajuba (Mus musculus) (from UniProt Q91XC0) L292A;L293A;L295A;L418A;I419A;L420A;I488A;V489A;V491A
